Laboratory results reported in patent US20170043011A1.

Target: human CD81 on Hep3B hepatoma cells (human) (UniProt P60033)
Assay: cell-based or functional assay

Chain of UniProt P60033 (P60033 whole entry): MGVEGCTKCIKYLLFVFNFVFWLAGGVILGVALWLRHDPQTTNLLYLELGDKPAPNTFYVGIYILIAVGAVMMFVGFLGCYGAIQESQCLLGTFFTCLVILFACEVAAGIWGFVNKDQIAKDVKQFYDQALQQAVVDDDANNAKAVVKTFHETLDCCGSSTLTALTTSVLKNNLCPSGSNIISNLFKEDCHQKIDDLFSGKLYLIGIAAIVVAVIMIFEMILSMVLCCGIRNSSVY

Q: “mouse anti-human CD81 monoclonal antibody, clone 1.3.3.22 (Santa Cruz Biotechnology)” was tested. Which fold decrease in infectivity of Bole1a HCVpp on Hep3B cells (luciferase RLU) did it give?
A: The fold decrease in infectivity of Bole1a HCVpp on Hep3B cells (luciferase RLU) was 10 fold.
